{
  "source": "paper PMC8550936",
  "about": "(2021)",
  "binders": {"B1": {"name": "LDLRAD3(D1), cleaved monomeric ectodomain of mouse low-density lipoprotein receptor class A domain-containing 3, domain 1 (domain or fragment)", "chain": "not shown"}},
  "target": "Venezuelan equine encephalitis virus (VEEV) virus-like particles (Venezuelan equine encephalitis virus, …, UniProt P09592 813-1254)",
  "experiment": "SPR",
  "data": [
    {"binder": "B1", "values": [
      {"measurement": "Kd", "value": 58.2, "unit": "nM"}
    ]}
  ]
}
